# Assay results taken from patent EP4585618A1 (Jiangsu Hengrui Pharmaceuticals Co., Ltd., dated 2025).
# Substitutions are numbered along the chain they refer to.
# B1: humanized antibody huP1-D7 (antibody, human IgG4 S228P, kappa, F234A L235A, V domains shown)
# VH: EVQLVQSGAEVKKPGASVKVSCKASGYTFTTYGMNWVRQAPGQGLEWMGWINTYSGVPTYAEDFKGRVTMTTDTSTSTAYMELRSLRSDDTAVYYCARRTDYDGYVMDSWGQGTTVTVSS
# VL: DIVMTQSPDSLAVSLGERATINCKSSQSLFYSGNQKNYLAWYQQKPGQSPKLLLYWASTRESGVPDRFSGSGSGTDFTLTISSLQAEDVAVYYCQQYFSYPPTFGGGTKVEIKR
# notes: Full chains; also called P1-D7H1L1
# B2: humanized antibody huP1-G7 (antibody, human IgG4 S228P, kappa, F234A L235A, V domains shown)
# VH: EVQLQESGPGLVKPSQTLSLTCTVSGYSITSGYYWNWIRQHPGKGLEWIGYISYDGGNNYNPFLKNRVTISRDTSKNQFSLKLSSVTAADTAVYYCAREGGSSWEYYGMDYWGQGTTVTVSS
# VL: DIQMTQSPSSLSASVGDRVTITCRASENIYRNLAWYQQKPGKAPKLLLYAATNLADGVPSRFSGSGSGTDFTLTISSLQPEDFATYYCQQFWGSPYTFGGGTKVEIKR
# notes: Full chains; also called P1-G7H1L1
# B3: chimeric antibody ChP1-D10 (antibody, human IgG4 S228P, kappa, F234A L235A, V domains shown)
# VH: QVQLKQSGPGLVQPSQSLSITCTVSGFSLTTYGVHWVRQSPGKGLEWLGVIWSGGNTDSNAAFISRLSISKDNSKSQVFFKMNNLQADDTAIYYCARYSYAMDYWGQGTSVTVSS
# VL: DIVMTQSHKFMSTSVGDRVSITCKASQDVSNGVAWYQQKPGQSPKVLIYAASYRYTGVPDRFTGSGSGTDFTFTIGSVQAEDLALYYCQQHYSTPFTFGSGTMLEIKR
# notes: Murine variable regions with hIgG4(LALA) and CL constant regions; also called M P1-D10
# B4: chimeric antibody ChP2-C6 (antibody, human IgG4 S228P, kappa, F234A L235A, V domains shown)
# VH: EVQLQQSGPELVKPGASVKMSCEASGYTFTDYYIHWVKQSHGESLEWIGYIYPDNGYNGYNQKFKGKATLTVDKSSNTAYMELRSLTSEDSAVYFCTRRGDYSGVHFDYWGQGTALTVSS
# VL: DIVLTQSPASLAVSLGQRATISCRASESVNNYGVGFLHWYQQKPGQPPKLLIYRASTLESGIPARFSGSGSRTDFTLTINPVETDDVATYYCQHSYKDPPWTFGGGTKLEIKR
# notes: Murine variable regions with hIgG4(LALA) and CL constant regions; also called M P2-C6
# B5: chimeric antibody ChP1-B4 (antibody, human IgG4 S228P, kappa, F234A L235A, V domains shown)
# VH: QVQLKQSGPGLVQPSQSLSITCTVSSFSLTNYGVHWVRQSPGKGLEWLGVIWTGGSTDYNAAFISRLSIIRDNSKSQVFFKMNSLQADDTAMYYCAITTVVTAMDYWGQGTSVTVSS
# VL: DIVMTQSHKFMSTSVGDRVSITCKASQDVNIAVVWYQQKPGQSPKLLIYAASYRYTGVPDRFTGSGSGTDFTFTISSVQAEDLAVYYCQQHYSSPYTFGGGTKLEIKR
# notes: Murine variable regions with hIgG4(LALA) and CL constant regions; also called M P1-B4
# B6: chimeric antibody ChP2-C4 (antibody, human IgG4 S228P, kappa, F234A L235A, V domains shown)
# VH: QVQLKESGPGLVAPSQSLSITCTVSGFSLSTYAIGWVRQPPGKGLEWLGVIWTGGGTSYNSALKSRLSISKDNSKSQVFLKMNSLQTDDTARYYCARGDYGPFAYWGQGTLVTVSS
# VL: B5 VL with V15L, T22S, N30S, V34A, P40A, A50S, Y55H, S94T, Y96F, G100S
# notes: Murine variable regions with hIgG4(LALA) and CL constant regions; also called M P2-C4
# B7: chimeric antibody ChP2-B3 (antibody, human IgG4 S228P, kappa, F234A L235A, V domains shown)
# VH: QVQLKQSGPGLVQPSQSLSITCTVSGFSLTNYGVHWFRQSPGKGLEWLGMIWSGGNTDYNAAFTSRLIITKDNSKSQVFFKMNSMQADDTAIYYCARGDYGSSSAYWGQGTLVTVSS
# VL: B5 VL with N30S, V34A, A50S, S94N, P95T, Y96L, G100A
# notes: Murine variable regions with hIgG4(LALA) and CL constant regions; also called M P2-B3
# B8: chimeric antibody ChP2-E8 (antibody, human IgG4 S228P, kappa, F234A L235A, V domains shown)
# VH: EVQLLESGGGLVKPGGSLKLSCAASGFTFSDYGIHWVRQAPEKGLEWVAYISSGSSIINYADTVKGRFTISRDNAKNTLLLQMTSLRSEDTAMYYCARGPNYYGSSYLLVYWGQGTLVTVSS
# VL: B5 VL with V34A, K39R, A50S, S93N, S94I, Y96W
# notes: Murine variable regions with hIgG4(LALA) and CL constant regions; also called M P2-E8
# B9: chimeric antibody ChP1-B9 (antibody, human IgG4 S228P, kappa, F234A L235A, V domains shown)
# VH: QVQLKQSGPGLVQPSQSLSITCTVSGFSLTSYGVHWVRQSPGKGLEWLGVIWSGGNTDYNAAFMSRLRINKDNSKSQVFFKMNSLQGSDTAIYYCATPYDVVPFAYWGQGTLVTVSS
# VL: B5 VL with V34A, Q42L, A50S, D60G, Q79K, S94I, Y96F, G100A
# notes: Murine variable regions with hIgG4(LALA) and CL constant regions; also called M P1-B9
# B10: chimeric antibody ChP2-F4 (antibody, human IgG4 S228P, kappa, F234A L235A, V domains shown)
# VH: EVQLVESGGGLVKPGGSLKLSCAASGFTFSDYGMHWVRQAPEKGLEWVAYISSGSRIIYYADTVKGRFTISRDNAKNTLFLQMTSLRSEDTAMYSCARFYNYAHYTMDYWGQGTSVTVSS
# VL: B5 VL with N30S, I31T, V34A, A50S, A84T, V85L, Q90H, S94T, Y96P
# notes: Murine variable regions with hIgG4(LALA) and CL constant regions; also called M P2-F4
# B11: chimeric antibody ChP2-C10 (antibody, human IgG4 S228P, kappa, F234A L235A, V domains shown)
# VH: QVQLQQPGAELVKPGASVKLSCKASGYTFTSYWMHWVKQRPGQGLEWIGVIHPNSDTTNYNEKFKNKATLTVDKSSSTAYMQLSSLTSEDSAVYYCATRYDYAYYAMDYWGQGTSVTVSS
# VL: B5 VL with N30T, I31T, V34A, A50S, Y87H, S94T, P95S, Y96P, K103M
# notes: Murine variable regions with hIgG4(LALA) and CL constant regions; also called M P2-C10
# B12: chimeric antibody ChP1-F7 (antibody, human IgG4 S228P, kappa, F234A L235A, V domains shown)
# VH: DVQLQESGPGLVKPSQSLSLTCSVTGYSITSGYYWNWIRQFPGNKLEWMGYISYDGNNYYNPSLKNRISVTRDTSKNQFFLKLNSVTSEDTATYYCAREDGSYSDYDGFAYWGQGTLVTVSS
# VL: DIQMTQSPASLSVSVGETVTITCRANENIYSNLAWYQQKQGKSPQLLVYAATNLADGVSSRFSGSGSGTQYSLRINSLQSEDFGSYYCQQFWGTPYTFGGGTKLEIKR
# notes: Murine variable regions with hIgG4(LALA) and CL constant regions; also called M P1-F7
# B13: chimeric antibody ChP2-E3 (antibody, human IgG4 S228P, kappa, F234A L235A, V domains shown)
# VH: EVQLQQSGPELVKPGASVKISCKASGYTFTDYYMNWVKQSHGKSLEWIGDINPNNGGTSYNQKFKGKATLTVDKSSSTAYMELRSLTSEDSTVYYCARGGVTTVVATYWYFDVWGTGTTVTVSS
# VL: B12 VL with N26S, L54V, S59P, S65G, R74K, G93D, Y96F, G100S
# notes: Murine variable regions with hIgG4(LALA) and CL constant regions; also called M P2-E3
# B14: chimeric antibody ChP2-G9 (antibody, human IgG4 S228P, kappa, F234A L235A, V domains shown)
# VH: DVQLQESGPGLVKPSQSLSLACSVTGSSITSGYYWNWIRQFPGNKLEWMGYLSYDGSNNYNPSLKNRISITRDTSKSQFFLKLNSVTPEDTATYYCAREGAHYSGTLSWFAYWGQGTLVTVSS
# VL: B12 VL with N26S, S59P, R74K, Q90H, G93D
# notes: Murine variable regions with hIgG4(LALA) and CL constant regions; also called M P2-G9
# B15: chimeric antibody ChP2-C7 (antibody, human IgG4 S228P, kappa, F234A L235A, V domains shown)
# VH: EVQLQQSGPELVKPGTSVKMSCKASGYTFTDYSMHWVRQSHGKSLEWIGYFNPNNGDTIYNQKFKGKATLTVNKSSSTAYMELRSLTSDDSAVYYCAREDSVSTNAWDGALDYWGQGTSVTVSS
# VL: B12 VL with A25T, N26S, A50G, S59P, R74K, Q90H, G93D, T94I, Y96W, K103T
# notes: Murine variable regions with hIgG4(LALA) and CL constant regions; also called M P2-C7
# B16: chimeric antibody ChP2-F10 (antibody, human IgG4 S228P, kappa, F234A L235A, V domains shown)
# VH: DVQLQESGPGLVKPSQSLSLTCSVTGYSIASGYYWNWIRQFPGNKLEWMGYITYDGSNNYNPSLKNRISITRDTSKNQFFLKLNSVTTEDTATYYCAREYSYGSTLSWFAYWGQGTLVTVSS
# VL: B12 VL with V13I, N26S, S59P, R74K, Q90H, G93D
# notes: Murine variable regions with hIgG4(LALA) and CL constant regions; also called M P2-F10
# B17: chimeric antibody ChP1-G7 (antibody, human IgG4 S228P, kappa, F234A L235A, V domains shown)
# VH: DVQLQESGPGLVKPSQSLSLTCSVTGYSITSGYYWNWIRQFPENKLEWMGYISYDGGNNYNPFLKNRISITRDTSKNQFFLNLNSVTIEDTATYYCAREGGSSWEYYGMDYWGQGTSVTVSS
# VL: B12 VL with N26S, S31R, K42H, V48L, S59P, R74K, T94S
# notes: Murine variable regions with hIgG4(LALA) and CL constant regions; also called M P1-G7
# Target: T1, His-tagged ILT4 protein extracellular domain: ILT4-His (human, UniProt Q8N423 22-460)
# T1 construct: Expressed in 293 cells; also called human ILT4-His protein
# Experiment: SPR (Biacore), antibody captured on Protein A chip, ILT4-His as analyte, 1:1 model
# T1 sequence (Q8N423 other isoform, or with tags, fused parts or gaps limits assumed): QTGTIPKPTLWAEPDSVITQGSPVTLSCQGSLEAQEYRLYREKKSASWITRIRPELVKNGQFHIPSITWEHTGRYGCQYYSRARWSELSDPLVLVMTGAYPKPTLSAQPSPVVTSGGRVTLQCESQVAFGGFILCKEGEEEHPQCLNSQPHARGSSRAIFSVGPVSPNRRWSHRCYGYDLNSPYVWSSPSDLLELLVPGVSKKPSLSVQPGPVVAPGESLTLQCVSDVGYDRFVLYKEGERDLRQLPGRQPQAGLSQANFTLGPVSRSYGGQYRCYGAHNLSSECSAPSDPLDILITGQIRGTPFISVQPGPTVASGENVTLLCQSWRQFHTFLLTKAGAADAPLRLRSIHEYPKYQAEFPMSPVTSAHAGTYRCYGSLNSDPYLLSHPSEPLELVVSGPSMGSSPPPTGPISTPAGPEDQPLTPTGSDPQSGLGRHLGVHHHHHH
Binder,Kd [nM],koff [s⁻¹],kon [M⁻¹ s⁻¹]
B1,3.98,0.0103,2.59e+06
B2,0.158,7.2e-05,457000

# Target: T1, His-tagged ILT4 protein extracellular …
# Experiment: screening of chimeric antibodies (ILT4 protein binding, cell binding, ILT4/HLA-G blocking)
row,Binder,binding result
1,B3,binds
2,B4,binds
3,B5,binds
4,B6,binds
5,B7,binds
6,B8,binds
7,B9,binds
8,B10,binds
9,B11,binds
10,B12,binds
11,B13,binds
12,B14,binds
13,B15,binds
14,B16,binds
15,B17,binds
